Measurements reported in PMC5007201.

Target: human dynein heavy chain with an N-terminal GFP, within the GFP-dynein complex (human) (UniProt Q14204)
Assay: single-molecule photobleaching step counting

Substance: human dynein heavy chain with an N-terminal GFP, within the GFP-dynein complex, Q14204 1-4646
- stoichiometry N: 2
